Numbering of substitutions follows the chain as printed.
T1: mutant Ang-2 protein, I434 substituted with alanine (FLAG-tagged at N-terminal) (human, UniProt O15123 281-496, limits assumed)
T1 construct: also called 1434
T1 chain: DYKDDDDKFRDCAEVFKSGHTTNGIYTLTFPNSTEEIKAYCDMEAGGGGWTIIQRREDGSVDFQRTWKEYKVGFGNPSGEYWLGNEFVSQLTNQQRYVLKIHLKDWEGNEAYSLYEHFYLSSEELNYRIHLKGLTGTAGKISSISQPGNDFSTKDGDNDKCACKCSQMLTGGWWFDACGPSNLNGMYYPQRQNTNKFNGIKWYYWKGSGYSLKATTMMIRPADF

T2: mutant Ang-2 protein, P419 substituted with alanine (FLAG-tagged at N-terminal) (human, UniProt O15123 281-496, limits assumed)
T2 chain: T1 chain with P147A, A162I

T3: mutant Ang-2 protein, P452 substituted with alanine (FLAG-tagged at N-terminal) (human, UniProt O15123 281-496, limits assumed)
T3 chain: T1 chain with A162I, P180A

T4: mutant Ang-2 protein, Y460 substituted with alanine (FLAG-tagged at N-terminal) (human, UniProt O15123 281-496, limits assumed)
T4 chain: T1 chain with A162I, Y188A

T5: mutant Ang-2 protein, K468 substituted with alanine (FLAG-tagged at N-terminal) (human, UniProt O15123 281-496, limits assumed)
T5 chain: T1 chain with A162I, K196A

T6: mutant Ang-2 protein, S417 substituted with alanine (FLAG-tagged at N-terminal) (human, UniProt O15123 281-496, limits assumed)
T6 chain: T1 chain with S145A, A162I

B1: SAIT-Ang-2-AB-m8B3 (antibody, V domains shown)
VH: DVQLQESGPGLVKPSQSLSLSCTVTGYSIASDYAWNWIRQFPGNKVEWMGYINYRGNTDYNPSLKSRSSINRDTSKNQFFLQLNSVTTGDTATYYCARGNFEGAMDYWGQGTSVTVSS
VL: TIVMTQTPKFLLVSAGDRITITCKASQSVSNDVAWYQQKPGQSPKLLIYYASNRYPGVPDRFTGSGYGTDFTFTISTVQAEDLAVYFCQQDYTSPWTFGGGTELEIK
notes: also called KCLRF-BP-00293
B2: SAIT-Ang-2-AB-m2E7 (antibody, V domains shown)
VH: DLQLQESGPGLVKPSQSLSLTCTVTGYSITSDYAWNWIRQFPGNKLEWMGYISYSGSTSYNPSLKSRISITRDTSKNQFFLQLNSLTTEDTATYYCARGDYGNYVGPMDYWGQGTSVTVSS
VL: B1 VL with T1S, I19V, Q37R, P56T, T93S, W96L, G100A, G101R, E103K, I106L
notes: also called KCLRF-BP-00294

Legend:
Test in all cases: ELISA, antibody coated, 250 ng FLAG-tagged mutant Ang-2, anti-FLAG-HRP, OD450 relative to native Ang-2
[1] = target: T1, mutant Ang-2 protein, I434 substituted …
Description: (§1) Each well of a 96-well MaxiSorp™ flat-bottom plate (Nunc) was coated with 50 ul (microliter) of 1000 nM antibodies (Example 2). Then, the plate was washed five times with a 0.05% (v/v) Tween-20 containing PBS (PBST) and blocked with a 1% (v/v) BSA containing PBS at a room temperature for 2 hours. 250 ng of each mutant Ang-2 protein obtained by substituting S417, Q418, P419, N421, 1434, D448, A449, P452, Y460, N467, K468, or F469 residue of Ang-2 protein tagged with a FLAG sequence ([…], Sigma) at its N-terminal with alanine was added to each well of the plate, which was then allowed to react at a room temperature for 2 hours.
(§2) The plate was washed five times with a 0.05% (v/v) Tween-20 containing PBS, reacted with an anti-FLAG antibody (SIGMA) conjugated with HRP which was diluted in a 1% (v/v) BSA containing PBS at a ratio of 1:5,000 (v/v) at a room temperature for 1 hour, and washed five times with a 0.1% (v/v) Tween-20 containing PBS.
(§3) Finally, 50 ul of TMB substrates (Cell signaling) was added to each well of the plate to induce color development reaction at a room temperature for 3 min. and the reaction was ceased by the addition of 50 ul of Stop solution (Cell signaling) and then, OD450 values were measured on a plate reader (Molecular Devices). By comparing binding affinities with mutated Ang-2 to those of unmutated Ang-2, each epitope of Ang-2 antibodies was identified. The thus obtained measurement results of the binding affinities (%) of mutant Ang-2 against the binding affinity of the native Ang-2 are shown in the following Table 9.

[2] = target: T2, mutant Ang-2 protein, P419 substituted …
Description: as §1, §2, §3

[3] = target: T3, mutant Ang-2 protein, P452 substituted …
Description: as §1, §2, §3

[4] = target: T4, mutant Ang-2 protein, Y460 substituted …
Description: as §1, §2, §3

[5] = target: T5, mutant Ang-2 protein, K468 substituted …
Description: as §1, §2, §3

[6] = target: T6, mutant Ang-2 protein, S417 substituted …
Description: as §1, §2, §3

| Binder | % at RBD binding (mutant Ang-2 against native Ang-2) [1] [%] | % at RBD binding (mutant Ang-2 against native Ang-2) [2] [%] | % at RBD binding (mutant Ang-2 against native Ang-2) [3] [%] | % at RBD binding (mutant Ang-2 against native Ang-2) [4] [%] | % at RBD binding (mutant Ang-2 against native Ang-2) [5] [%] | % at RBD binding (mutant Ang-2 against native Ang-2) [6] [%] |
| --- | --- | --- | --- | --- | --- | --- |
| B1 | 99.4 | 8.7 | 102 | 100 | 105 | 95.4 |
| B2 | 102 | 88.6 | 90.1 | 98.7 | 101 | 98.3 |

— patent US20150010572A1 (SAMSUNG ELECTRONICS, published 2015)
